Data: paper PMC4666417

Target: eEF1A1 (eukaryotic elongation factor 1 subunit A1), MYC/DDK-tagged (human) (UniProt P68104)
Assay: BLI; biotinylated eEF1 subunit (eEF1A1, eEF1B, eEF1D or eEF1G) immobilised on streptavidin biosensor; RT subunits, RT heterodimer, Gag or RTp66 mutants as analytes at 90, 30 and 10 nM (mutants at 90 nM); kinetic buffer 1 mM phosphate, 15 mM NaCl, 0.002% Tween-20, 0.1 mg/ml gelatine, 1000 rpm, OctetRed

Chain of eEF1A1 (eukaryotic elongation factor 1 subunit A1), MYC/DDK-tagged (human) (P68104 whole entry): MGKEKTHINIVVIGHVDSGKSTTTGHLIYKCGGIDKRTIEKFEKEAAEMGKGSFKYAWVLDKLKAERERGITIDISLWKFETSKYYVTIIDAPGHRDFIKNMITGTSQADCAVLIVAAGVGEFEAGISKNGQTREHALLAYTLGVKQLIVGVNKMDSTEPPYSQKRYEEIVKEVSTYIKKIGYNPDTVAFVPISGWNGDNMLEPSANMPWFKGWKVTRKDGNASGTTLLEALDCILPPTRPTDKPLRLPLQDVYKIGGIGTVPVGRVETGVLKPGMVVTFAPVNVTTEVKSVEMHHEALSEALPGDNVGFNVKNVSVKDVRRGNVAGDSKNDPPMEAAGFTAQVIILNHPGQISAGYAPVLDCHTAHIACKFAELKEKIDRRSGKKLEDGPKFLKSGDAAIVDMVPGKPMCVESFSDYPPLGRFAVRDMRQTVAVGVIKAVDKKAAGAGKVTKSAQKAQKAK

| Substance | Kd [nM] | koff [s⁻¹] | kon [M⁻¹ s⁻¹] |
| --- | --- | --- | --- |
| HIV-1 RT p66/p51 heterodimer, purified (from UniProt P04585 588-1147; P04585 588-1027) (complex) | 3.75 | 0.000207 | 55200 |
| HIV-1 RT p51, 6xHis-tagged, purified (from UniProt P04585 588-1027) (natural protein; other documents disagree on this pair) | 4.13 | 0.000185 | 44800 |
